Data on 10 molecules can be found in paper PMC9700851, “Interaction kinetics between p115-RhoGEF and Gα13 are determined by unique molecular interactions affecting agonist sensitivity” (Communications Biology, 2022).

Where a chain is given by its changes, count along the chain named.

Holding throughout (experiment): FRET or BRET; single-cell FRET in intact HEK293T cells co-transfected with TPα receptor, Gβ1 and Gγ2; donor mTurquoise2 (or CFP) on the Gα subunit, acceptor YFP on the RhoGEF; F535/F480 emission ratio on superfusion with the agonist U-46619 and after its washout (AUC of decay over the 10 min washout); room temperature, buffer pH 7.3
(In general: In BRET a luciferase serves as donor, and the signal depends on an acceptor being close.)

The target in experiment [1] is Gα13-mTurq2 (mTurquoise2 between amino acids 127 and 128) (mouse) (UniProt P27601).
Experiment [2] addresses Gα13(135) (mTurquoise2 between amino acids 135 and 136) (mouse) (UniProt P27601).
Another experiment concerns the target Gα13(135)R128A (mouse) (UniProt P27601).
A further experiment concerns the target T1, Gα13(135)R128A (mouse, UniProt P27601 1-377, R128A).
T1 construct: Gα13, mouse; also called Gα13-R128A; source: HEK293T, transfected, in intact cells
T1 sequence (looked up): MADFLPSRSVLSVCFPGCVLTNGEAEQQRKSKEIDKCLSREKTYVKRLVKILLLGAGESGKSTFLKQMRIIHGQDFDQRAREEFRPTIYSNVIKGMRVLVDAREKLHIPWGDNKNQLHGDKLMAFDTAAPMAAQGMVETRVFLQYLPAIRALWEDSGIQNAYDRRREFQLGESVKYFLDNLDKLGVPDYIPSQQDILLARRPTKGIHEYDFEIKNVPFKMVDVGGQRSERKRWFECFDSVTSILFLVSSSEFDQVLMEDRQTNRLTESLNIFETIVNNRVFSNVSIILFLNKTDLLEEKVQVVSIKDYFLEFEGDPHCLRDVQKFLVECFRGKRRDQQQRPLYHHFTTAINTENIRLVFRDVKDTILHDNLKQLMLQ

The target of experiment [3] is T2, Gα13-mTurq2 (mTurquoise2 between amino acids 127 and 128) (mouse, UniProt P27601 1-377).
T2 construct: Gα13, mouse; co-expressed with human TPα receptor, human Gβ1 and bovine Gγ2; also called Gα13(127); mTurq2-Gα13; source: HEK293T, transfected, in intact cells; not shown: mTurquoise2, internal (after residue 127), kept
T2 sequence (looked up): T1 sequence (looked up) with A128R
To be noted: partners not purified.

Experiment [4] addresses T3, Gα13(135) (mTurquoise2 between amino acids 135 and 136) (mouse, UniProt P27601 1-377).
T3 construct: Gα13, mouse; Gibson assembly; also called wt-Gα13; source: HEK293T, transfected, in intact cells
T3 sequence (looked up): T1 sequence (looked up) with A128R
To be noted: partners not purified.

Turning to “Chimera 2 (full length p115 with the RH domain of LARG, amino acids 370-558, instead of p115 amino acids 44-232) (from UniProt Q61210 1-43; Q9NZN5 370-558; Q61210 233-912)”, in experiment [1], the mean AUC of decay of the FRET signal after agonist washout (arbitrary unit) was 274. Same read-out and setting: next, “Chimera1 (p115-RhoGEF amino acids 1-232 and LARG amino acids 559-1544) (from UniProt Q61210 1-232; Q9NZN5 559-1544)”: 270. The same measure, in the same setting: under “p115-R (p115-RhoGEF amino acids 1-245) (from UniProt Q61210 1-245) (domain or fragment)” stands 343; under “Chimera 3 (full length LARG with the RH domain of p115, amino acids 44-232, instead of LARG amino acids 370-558) (from UniProt Q9NZN5 1-369; Q61210 44-232; Q9NZN5 559-1544)”, 404; under “p115-Rshort (p115-RhoGEF amino acids 34-235) (from UniProt Q61210 34-235) (domain or fragment)”, 444. With “eYFP-p115-RhoGEF (from UniProt Q61210 1-920) (natural protein)”, the mean AUC of decay of the FRET signal after agonist washout (arbitrary unit) in experiment [2] worked out at 284; with Gα13(135)R128A (mouse), 417; in experiment [1], 331.

“p115-E32G (from UniProt Q61210 1-920) (natural protein)”: the mean AUC of decay of the FRET signal after agonist washout (arbitrary unit) was found to be 444 with Gα13(135)R128A, 453 in experiment [2] and 468 in experiment [1].

B1: LARG-PR (LARG amino acids 1-558) (domain or fragment, human, UniProt Q9NZN5 1-558, looked up)
chain: MSGTQSTITDRFPLKKPIRHGSILNRESPTDKKQKVERIASHDFDPTDSSSKKTKSSSEESRSEIYGLVQRCVIIQKDDNGFGLTVSGDNPVFVQSVKEDGAAMRAGVQTGDRIIKVNGTLVTHSNHLEVVKLIKSGSYVALTVQGRPPGSPQIPLADSEVEPSVIGHMSPIMTSPHSPGASGNMERITSPVLMGEENNVVHNQKVEILRKMLQKEQERLQLLQEDYNRTPAQRLLKEIQEAKKHIPQLQEQLSKATGSAQDGAVVTPSRPLGDTLTVSEAETDPGDVLGRTDCSSGDASRPSSDNADSPKSGPKERIYLEENPEKSETIQDTDTQSLVGSPSTRIAPHIIGAEDDDFGTEHEQINGQCSCFQSIELLKSRPAHLAVFLHHVVSQFDPATLLCYLYSDLYKHTNSKETRRIFLEFHQFFLDRSAHLKVSVPDEMSADLEKRRPELIPEDLHRHYIQTMQERVHPEVQRHLEDFRQKRSMGLTLAESELTKLDAERDKDRLTLEKERTCAEQIVAKIEEVLMTAQAVEEDKSSTMQYVILMYMKHLGVK
notes: LARG, human, with the PDZ and RH domains; source: HEK293T, transfected, in intact cells
In the case of B1, the “mean AUC of decay of the FRET signal after agonist washout” value in experiment [3] amounted to 464 arbitrary unit.

B2: eYFP-human LARG (leukemia-associated RhoGEF) (natural protein, UniProt Q9NZN5 1-1544, looked up)
chain: MSGTQSTITDRFPLKKPIRHGSILNRESPTDKKQKVERIASHDFDPTDSSSKKTKSSSEESRSEIYGLVQRCVIIQKDDNGFGLTVSGDNPVFVQSVKEDGAAMRAGVQTGDRIIKVNGTLVTHSNHLEVVKLIKSGSYVALTVQGRPPGSPQIPLADSEVEPSVIGHMSPIMTSPHSPGASGNMERITSPVLMGEENNVVHNQKVEILRKMLQKEQERLQLLQEDYNRTPAQRLLKEIQEAKKHIPQLQEQLSKATGSAQDGAVVTPSRPLGDTLTVSEAETDPGDVLGRTDCSSGDASRPSSDNADSPKSGPKERIYLEENPEKSETIQDTDTQSLVGSPSTRIAPHIIGAEDDDFGTEHEQINGQCSCFQSIELLKSRPAHLAVFLHHVVSQFDPATLLCYLYSDLYKHTNSKETRRIFLEFHQFFLDRSAHLKVSVPDEMSADLEKRRPELIPEDLHRHYIQTMQERVHPEVQRHLEDFRQKRSMGLTLAESELTKLDAERDKDRLTLEKERTCAEQIVAKIEEVLMTAQAVEEDKSSTMQYVILMYMKHLGVKVKEPRNLEHKRGRIGFLPKIKQSMKKDKEGEEKGKRRGFPSILGPPRRPSRHDNSAIGRAMELQKARHPKHLSTPSSVSPEPQDSAKLRQSGLANEGTDAGYLPANSMSSVASGASFSQEGGKENDTGSKQVGETSAPGDTLDGTPRTLNTVFDFPPPPLDQVQEEECEVERVTEHGTPKPFRKFDSVAFGESQSEDEQFENDLETDPPNWQQLVSREVLLGLKPCEIKRQEVINELFYTERAHVRTLKVLDQVFYQRVSREGILSPSELRKIFSNLEDILQLHIGLNEQMKAVRKRNETSVIDQIGEDLLTWFSGPGEEKLKHAAATFCSNQPFALEMIKSRQKKDSRFQTFVQDAESNPLCRRLQLKDIIPTQMQRLTKYPLLLDNIAKYTEWPTEREKVKKAADHCRQILNYVNQAVKEAENKQRLEDYQRRLDTSSLKLSEYPNVEELRNLDLTKRKMIHEGPLVWKVNRDKTIDLYTLLLEDILVLLQKQDDRLVLRCHSKILASTADSKHTFSPVIKLSTVLVRQVATDNKALFVISMSDNGAQIYELVAQTVSEKTVWQDLICRMAASVKEQSTKPIPLPQSTPGEGDNDEEDPSKLKEEQHGISVTGLQSPDRDLGLESTLISSKPQSHSLSTSGKSEVRDLFVAERQFAKEQHTDGTLKEVGEDYQIAIPDSHLPVSEERWALDALRNLGLLKQLLVQQLGLTEKSVQEDWQHFPRYRTASQGPQTDSVIQNSENIKAYHSGEGHMPFRTGTGDIATCYSPRTSTESFAPRDSVGLAPQDSQASNILVMDHMIMTPEMPTMEPEGGLDDSGEHFFDAREAHSDENPSEGDGAVNKEEKDVNLRISGNYLILDGYDPVQESSTDEEVASSLTLQPMTGIPAVESTHQQQHSPQNTHSDGAISPFTPEFLVQQRWGAMEYSCFEIQSPSSCADSQSQIMEYIHKIEADLEHLKKVEESYTILCQRLAGSALTDKHSDKS
notes: LARG (leukemia-associated RhoGEF), human; also called YFP-LARG; wt-LARG; source: HEK293T, transfected, in intact cells; not shown: YFP, N-terminal, kept
For B2, the “mean AUC of decay of the FRET signal after agonist washout” value in experiment [4] turned out to be 462 arbitrary unit; with Gα13(135)R128A (partners not purified), 495 arbitrary unit; in experiment [3], 448 arbitrary unit.

B3: LARG-Rshort (LARG amino acids 360-561) (domain or fragment, human, UniProt Q9NZN5 360-561, looked up)
chain: TEHEQINGQCSCFQSIELLKSRPAHLAVFLHHVVSQFDPATLLCYLYSDLYKHTNSKETRRIFLEFHQFFLDRSAHLKVSVPDEMSADLEKRRPELIPEDLHRHYIQTMQERVHPEVQRHLEDFRQKRSMGLTLAESELTKLDAERDKDRLTLEKERTCAEQIVAKIEEVLMTAQAVEEDKSSTMQYVILMYMKHLGVKVKE
notes: LARG, human, RH domain without the region N-terminal to it; source: HEK293T, transfected, in intact cells
As for B3, in experiment [3], the “mean AUC of decay of the FRET signal after agonist washout” value came out at 380 arbitrary unit.
